The experiment concerns the target T1, recombinant ALKBH2 with a streptavidin binding peptide tag (human, UniProt Q6NS38 1-261).
T1 sequence (looked up): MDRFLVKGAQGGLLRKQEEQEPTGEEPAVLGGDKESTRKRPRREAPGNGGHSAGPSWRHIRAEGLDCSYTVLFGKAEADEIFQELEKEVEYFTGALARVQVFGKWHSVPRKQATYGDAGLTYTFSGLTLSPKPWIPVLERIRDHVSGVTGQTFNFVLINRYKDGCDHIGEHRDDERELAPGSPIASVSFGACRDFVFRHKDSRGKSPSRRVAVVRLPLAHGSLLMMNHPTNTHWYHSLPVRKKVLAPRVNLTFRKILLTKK
The experiment can be described thus: pull-down.

B1: recombinant PCNA mutant VDK188 (natural protein, UniProt P12004 1-261, looked up)
chain: MFEARLVQGSILKKVLEALKDLINEACWDISSSGVNLQSMDSSHVSLVQLTLRSEGFDTYRCDRNLAMGVNLTSMSKILKCAGNEDIITLRAEDNADTLALVFEAPNQEKVSDYEMKLMDLDVEQLGIPEQEYSCVVKMPSGEFARICRDLSHIGDAVVISCAKDGVKFSASGELGNGNIKLSQTSNAAAEEEAVTIEMNEPVQLTFALRYLNFFTKATPLSSTVTLSMSADVPLVVEYKIADMGHLKYYLAPKIEDEEGS
Take B1: the binding result is “binds”.

(Values after article PMC5206904 (DNA repair, 2015).)
